Measurements published in US8765721B2, “Composition comprising phosphatidyl serine and an antigen or allergen and the use thereof” (Vaccine Technology Limited, priority 2004, dated 2014).

Experiments:
Assay type in all cases: in vivo, rat
Conditions in all cases: no phosphatidyl serine, pooled group serum
IgE = test: Ovalbumin-specific IgE ELISA of serum of immunised rats
Experimental: (§1) Rats were injected with vaccine compositions comprising the ovalbumin antigen with and without di-oleoyl phosphatidyl serine, lyso-oleoyl phosphatidyl serine or stearoyl(X1)-arachidonoyl(X2) phosphatidyl serine and the concentrations of IgE, IgA and IgG are compared.
(§2) The animals were acclimatised for a period of 5 days prior to dosing. During the acclimatisation period animals were observed twice daily during the working week and once on each day during the weekend to evaluate the health status of the animals. Rats were then allocated to the following dose groups using computer-generated random order numbers.
(§3) On day 0, 20 μg of ovalbumin (OA) in phosphate buffered saline (PBS) with alhydrogel (AHG) adjuvant in a final volume of 0.5 mL was administered.
(§4) On days 21 and 42, 20 μg of ovalbumin (OA) in phosphate buffered saline (PBS) with the relevant test compound in a final volume of 0.5 ml was administered.
(§5) In each case, 0.5 mL of inoculum was injected subcutaneously into the scruff of the neck.
(§6) […] A blood sample was also taken from each animal on Days 15, 22, 29, 36, 43, 50, 57 and 64.
(§7) Serum was prepared by centrifugation of the blood sample at 2,500 rpm for 10 minutes and frozen at −20° C. The samples were then analysed by ELISA to establish the concentration of IgE, IgA and IgG1, IgG2a and IgG2b.
(§8) The purpose of an ELISA is to determine whether a particular protein is present in a sample and then enables quantification of how much is present. By coating the bottom of wells with ovalbumin (OVA) it is possible to bind anti-OVA specific antibodies. To detect only anti-OVA IgA antibodies anti-rat IgA conjugated to HRP was used as a secondary antibody. Quantification of specific antibodies in the rat sera samples was performed using antibody titrations. The data was reported as endpoint titers. Endpoint titers are defined as the last serum dilution giving an optical density value equal to twice the background optical density for the ELISA plate (buffer).

IgA = test: Ovalbumin-specific IgA ELISA of serum of immunised rats
Experimental: as §1, §2, §3, §4, §5
On Day 0 a pre-inoculation blood sample was taken. A blood sample was also taken from each animal on Days 15, 22, 29, 36, 43, 50, 57 and 64.
as §7, §8

IgG1 = test: Ovalbumin-specific IgG1 ELISA of serum of immunised rats
Experimental: as §1, §2, §3, §4
(§9) In each case, 0.5 mL of inoculum was injected subcutaneously into the scruff of the neck. […]
as §7
as §8, with “To detect only anti-OVA IgA antibodies anti-rat IgA conjugated to HRP was used as a secondary antibody.” left out

IgG2a = test: Ovalbumin-specific IgG2a ELISA of serum of immunised rats
Experimental: as §1, §2, §3, §4, §9, §7, §8

IgG2b = test: Ovalbumin-specific IgG2b ELISA of serum of immunised rats
Experimental: as §1, §2, §3, §4, §5, §6, §7, §8

B1: ovalbumin (protein, UniProt P01012 2-386, looked up)
Ovalbumin: GSIGAASMEFCFDVFKELKVHHANENIFYCPIAIMSALAMVYLGAKDSTRTQINKVVRFDKLPGFGDSIEAQCGTSVNVHSSLRDILNQITKPNDVYSFSLASRLYAEERYPILPEYLQCVKELYRGGLEPINFQTAADQARELINSWVESQTNGIIRNVLQPSSVDSQTAMVLVNAIVFKGLWEKAFKDEDTQAMPFRVTEQESKPVQMMYQIGLFRVASMASEKMKILELPFASGTMSMLVLLPDEVSGLEQLESIINFEKLTEWTSSNVMEERKIKVYLPRMKMEEKYNLTSVLMAMGITDVFSSSANLSGISSAESLKISQAVHAAHAEINEAGREVVGSAEAGVDAASVSEEFRADHPFLFCIKHIATNAVLFFGRCVSP
notes: Group 2: ovalbumin antigen, 20 μg on days 21 and 42 without phosphatidyl serine, after Ova + Alh on day 0
B1 was tested, and the IgE endpoint titer (IgE; Day 1) was 0, the IgE endpoint titer (IgE; Day 15) was 0 and the IgE endpoint titer (IgE; Day 22) was 0. The IgE endpoint titer (IgE; Day 29) was 0, the IgE endpoint titer (IgE; Day 36) was 20 and the IgE endpoint titer (IgE; Day 43) was 20. It also gave an IgE endpoint titer (IgE; Day 50) of 640, an IgE endpoint titer (IgE; Day 57) of 80 and an IgE endpoint titer (IgE; Day 64) of 40. For the same molecule, the IgA endpoint titer (IgA; Day 1) was 0, the IgA endpoint titer (IgA; Day 15) was 0 and the IgA endpoint titer (IgA; Day 22) was 0. For the same molecule, the IgA endpoint titer (IgA; Day 29) was 80, the IgA endpoint titer (IgA; Day 36) was 320 and the IgA endpoint titer (IgA; Day 43) was 320. It also gave an IgA endpoint titer (IgA; Day 50) of 640, an IgA endpoint titer (IgA; Day 57) of 1280 and an IgA endpoint titer (IgA; Day 64) of 640. The IgG1 endpoint titer (IgG1; Day 1) was 0, the IgG1 endpoint titer (IgG1; Day 15) was 320 and the IgG1 endpoint titer (IgG1; Day 22) was 2560. For the same molecule, the IgG1 endpoint titer (IgG1; Day 29) was 10240, the IgG1 endpoint titer (IgG1; Day 36) was 20480 and the IgG1 endpoint titer (IgG1; Day 43) was 10240. The IgG1 endpoint titer (IgG1; Day 50) was 10240, the IgG1 endpoint titer (IgG1; Day 57) was 10240 and the IgG1 endpoint titer (IgG1; Day 64) was 20480. The IgG2a endpoint titer (IgG2a; Day 1) was 0, the IgG2a endpoint titer (IgG2a; Day 15) was 640 and the IgG2a endpoint titer (IgG2a; Day 22) was 1280. The IgG2a endpoint titer (IgG2a; Day 29) was 1280, the IgG2a endpoint titer (IgG2a; Day 36) was 2560 and the IgG2a endpoint titer (IgG2a; Day 43) was 5120. The IgG2a endpoint titer (IgG2a; Day 50) was 20480, the IgG2a endpoint titer (IgG2a; Day 57) was 20480 and the IgG2a endpoint titer (IgG2a; Day 64) was 10240. For the same molecule, the IgG2b endpoint titer (IgG2b; Day 1) was 0, the IgG2b endpoint titer (IgG2b; Day 15) was 1280 and the IgG2b endpoint titer (IgG2b; Day 22) was 640. The IgG2b endpoint titer (IgG2b; Day 29) was 640, the IgG2b endpoint titer (IgG2b; Day 36) was 640 and the IgG2b endpoint titer (IgG2b; Day 43) was 640. It also gave an IgG2b endpoint titer (IgG2b; Day 50) of 640, an IgG2b endpoint titer (IgG2b; Day 57) of 5120 and an IgG2b endpoint titer (IgG2b; Day 64) of 5120.
